# Test results as given in patent publication US9114109B2, “Five-coordinate neuroglobin and use thereof as a blood substitute” (University of Pittsburgh—Of the Commonwealth System of …, priority 2009, dated 2015).
# Read-outs that look alike come from different tables or passages of the source.
# Legend:
# [1] = system: isolated rat liver mitochondria; experiment: Hypoxic inhibition of respiration of isolated mitochondria; type: cell-based; conditions: for inhibition of respiration, incubated alone (in words): nitrite 20 μM or protein 5 μM alone; for inhibition of respiration (cyanide = 100%): 5 μM protein with 20 μM nitrite, hypoxia
# Protocol: (§1) Mitochondria were isolated from the livers of male Sprague Dawley rats and incubated with wild-type or mutant Ngb proteins in a sealed, stirred chamber at 37° C. State 3 respiration was stimulated with succinate (15 mM) and ADP (1 mM) and oxygen consumption was measured with a Clark-type oxygen electrode. To measure inhibition of respiration in hypoxic conditions, respiring mitochondria were allowed to consume oxygen until the chamber became anoxic and then the chamber lid was removed to allow the diffusion of air back into the chamber. The rate of mitochondrial respiration was greater than the rate of oxygen entering the chamber such that the oxygen electrode trace remained at zero while the mitochondria were respiring. Nitrite was added to the chamber prior to the removal of the lid and deviation of the oxygen trace from a zero reading signified a decrease in respiration rate. All experiments were performed under conditions where substrates were not limiting. The extent of respiratory inhibition was quantified by measuring the time from equilibration of the mitochondria with air to the time when the oxygen trace deviated from zero. This time to inhibition was expressed as a percentage of maximal inhibition, where 100% inhibition was defined as the time to inhibition in the presence of cyanide and the time to the exhaustion of substrates was used as a measure of 0% inhibition. Similar experiments were performed with SHSY5Y cells suspended in the respirometer and treated with the uncoupler FCCP (5 μM) to measure hypoxic inhibition of cellular respiration.
# [2] = cited from earlier work
# [3] = Anaerobic reaction of deoxygenated globins with excess nitrite (nitrite reductase kinetics, absorption / stopped-flow spectroscopy); type: biochemical; conditions: for relative percentage of the total absorbance change (Soret peak 425 nm) in the first 60 minutes: 1 mM nitrite, 0.1 M HEPES pH 7.4, H64L-Ngb normalized to 100%; for rate of nitrite reduction (in words): cysteine to alanine mutants
# Protocol: Oxygen contamination was prevented by application of positive argon pressure without a channel for gas escape. Concentrations of single species during reactions were determined by least squares deconvolution of the visible absorption spectrum into standard reference spectra using Microsoft Excel analysis. OxyNgb was included to confirm successful deoxygenation before the reaction. […] Fast kinetic studies were performed using an Applied Photophysics DX-17 stopped-flow instrument equipped with rapid-scanning diode array detection. […] To determine bimolecular rate constants all reactions were analyzed with Pro-K software (Applied Photophysics) using singular value decomposition followed by fitting of the reduced data matrix to a pseudo-first order kinetic model.
# [4] = cited from earlier work; remark: listed apart in the source
# [5] = Reaction of met-Ngb with nitrite to produce nitrosyl-Ngb (nitrite ferric heme reduction); type: biochemical; conditions: met-Ngb with nitrite in the presence of dithionite
# [6] = Determination of nitrite binding constants to met-Ngb (difference spectra titration); conditions: met-Ngb 10 μM, 200 mM phosphate buffer, pH 7.4, 25° C.; read-out: Kd (NO2^−)
# Protocol: To determine the binding constant of nitrite to metNgb, 10 μM wild type and mutant Ngb in 200 mM phosphate buffer, pH 7.4, were incubated in a cuvette at 25° C. with increasing concentrations of nitrite and the UV—visible spectra were recorded after each increase in nitrite concentration. The constant KD for each protein was determined by interpolation of the absorbance data following procedures in Nicolis et al. (Biochem J 407:89-99, 2007).
# [7] = Midpoint redox potential of the thiol/disulfide couple in Ngb (GSH/GSSG gradient, Nernst fit of kobs); type: physicochemical; conditions: 37° C., 0.1 M phosphate buffer pH 7.0, GSH/GSSG
# Protocol: Wild-type and C55A mutant Ngb (50-60 μM) were incubated at 37° C. in anaerobic glove box with solutions containing various ratios of reduced (GSH) and oxidized (GSSG) glutathione, with the total GSH and GSSG concentration fixed at 25 mM in 0.1 M phosphate buffer pH=7.0. The GSH/GSSG ratio was varied to establish a gradient of redox potentials between −130 and −250 mV, calculated by the Nernst equation according to a midpoint reduction potential of −240 mV (Yi et al., J Biol Chem 284:20556-20561, 2009). After at least 1 hour incubation, glutathione was removed by passage through a G25 column and Ngb was reacted immediately with 10 mM nitrite in 0.1 M phosphate buffer pH=7.0 as described above. The observed rate constant determined at each glutathione ratio was fitted using the Nernst equation and the midpoint reduction potential of the thiol/disulfide couple of Ngb calculated.
# [8] = system: SHSY5Y cells; experiment: Hypoxic inhibition of cellular respiration in SHSY5Y cells expressing Ngb; type: cell-based; conditions: cells stably transfected with GFP-tagged Ngb, nitrite added, FCCP
# Protocol: as §1, with “Similar experiments were performed with SHSY5Y cells suspended in the respirometer and treated with the uncoupler FCCP (5 μM) to measure hypoxic inhibition of cellular respiration.” left out
# [9] = nitrite 7-230 μM; cited from earlier work
# [10] = EPR spectroscopy of iron-nitrosyl-heme formation from nitrite; type: biochemical; conditions: 1 mM nitrite, 40±5 μM protein
# Protocol: Iron nitrosyl species were measured by EPR spectroscopy using a Bruker EMX 10/12 spectrometer operating at 9.4 GHz, 5-G modulation, 10.1-milliwatt power, 327.68-ms time constant and 163.84-s scan over 600 G at 110 K as described previously (Basu et al., J Biol Chem 283:32590-32597, 2008; Azarov et al., J. Biol. Chem. 280:[…], 2005). The concentrations of Mb and Ngb species were determined by performing the double integral calculation and comparing to standard samples.
# [11] = Direct measurement of NO release in gas phase (chemiluminescence); type: biochemical; conditions: 20 μM Ngb, 1 mM nitrite, anaerobic
# Description: Once a stable baseline was established Ngb was reacted with a known amount of nitrite as previously described (Huang et al., J Clin Invest 115:2099-2107, 2005).
molecule,measurement,setting,value
"O=NO [nitrite, reference compound]","inhibition of respiration, incubated alone (in words)",[1],No significant inhibition
"neuroglobin: heme containing, monomeric, 16.9 kDa protein; literature values of the background section (protein, listed as Homo sapiens) MERPEPELIRQSWRAVSRSPLEHGTVLFARLFALEPDLLPLFQYNCRQFSSPEDCLSSPEFLDHIRKVMLVIDAAVTNVEDLSSLEEYLASLGRKHRAVGVKLSSFSTVGESLLYMLEKCLGPAFTPATRAAWSQLYGAVVQAMSRGWDGE",oxygen affinity P50,[2]; 20° C.,1-2 mmHg
same,oxygen affinity P50,[2]; after disulfide bond formation,~1 mmHg
same,oxygen affinity P50,[2]; before disulfide bond formation,about 9 mmHg
"WT SS: recombinant wild-type human neuroglobin (SEQ ID NO: 8), as purified with the C46-C55 disulfide bond formed (protein, listed as Homo sapiens, C46-C55 disulfide) MERPEPELIRQSWRAVSRSPLEHGTVLFARLFALEPDLLPLFQYNCRQFSSPEDCLSSPEFLDHIRKVMLVIDAAVTNVEDLSSLEEYLASLGRKHRAVGVKLSSFSTVGESLLYMLEKCLGPAFTPATRAAWSQLYGAVVQAMSRGWDGE",relative percentage of the total absorbance change (Soret peak 425 nm) in the first 60 minutes,[3],38%
same,calculated BRC in the presence of dithionite,"[3]; 10 mM nitrite, 10 μM deoxy-Ngb, 3 mM dithionite, pH 7.4, 100 mM phosphate buffer",0.11 ± 0.01 M⁻¹ s⁻¹
same,second-order bimolecular rate constant from linear fit of kobs versus nitrite concentration,"[3]; nitrite 0.25-20 mM, 100 mM phosphate buffer, 25° C.",0.12 ± 0.02 M⁻¹ s⁻¹
same,acceleration of the reaction for each pH unit decrease,[3]; pH 6.5-8.0,10 fold
same,"slope of linear fit, order of rate dependence on [H^+]",[3]; pH 6.5-8.0,0.96
same,instantaneous bimolecular rate constant (BRC) of reaction of nitrite with Ngb,"[3]; pH 7.4, 25° C., 10 μM deoxy-Ngb, 10 mM nitrite, no dithionite",0.12 ± 0.02 M⁻¹ s⁻¹
same,instantaneous bimolecular rate constant (BRC) of reaction of nitrite with Ngb,"[3]; pH 7.4, 37° C.",0.26 ± 0.02 M⁻¹ s⁻¹
same,kon of NO for the ferrous Ngb heme,[4],10^8 M^−1 s^−1
same,BRC of nitrite ferric heme reduction,[5],0.0005 ± 0.0005
same,Kd,[6],6.2 ± 2.1 mM
same,midpoint redox potential of the C46/C55 thiol/disulfide couple,[7],−194±3 mV
same,inhibition of respiration (cyanide = 100%),[1],78±6%
same,"inhibition of respiration, incubated alone (in words)",[1],No significant inhibition
same,extent of respiration inhibition compared to cyanide,[8],about 15%
"mouse neuroglobin: deoxy mouse neuroglobin of a cited study (Petersen et al., 2008) (protein, UniProt Q9ER97 1-151, looked up) Neuroglobin: MERPESELIRQSWRVVSRSPLEHGTVLFARLFALEPSLLPLFQYNGRQFSSPEDCLSSPEFLDHIRKVMLVIDAAVTNVEDLSSLEEYLTSLGRKHRAVGVRLSSFSTVGESLLYMLEKCLGPDFTPATRTAWSRLYGAVVQAMSRGWDGE",apparent second-order rate constant,[9],5.1 ± 0.4 M⁻¹ s⁻¹
"WT SH: wild-type human neuroglobin without disulfide bond, cysteines reduced by incubation with 10 mM DTT (protein, UniProt Q9NPG2 1-151, looked up, cysteines reduced with DTT, wild-type human neuroglobin without disulfide bond, cysteines reduced by incubation with 10 mM DTT) Neuroglobin: MERPEPELIRQSWRAVSRSPLEHGTVLFARLFALEPDLLPLFQYNCRQFSSPEDCLSSPEFLDHIRKVMLVIDAAVTNVEDLSSLEEYLASLGRKHRAVGVKLSSFSTVGESLLYMLEKCLGPAFTPATRAAWSQLYGAVVQAMSRGWDGE",relative percentage of the total absorbance change (Soret peak 425 nm) in the first 60 minutes,[3],20%
same,rate of nitrite reduction after reduction of the disulfide bond,"[3]; cysteines reduced with 10 mM DTT, 25° C., pH 7.4",0.062 ± 0.005 M⁻¹ s⁻¹
same,slowing of nitrite reduction rate by reduction of the disulfide bond,"[3]; relative to oxidized wild type, 25° C., pH 7.4",about 2 fold
same,rate of iron-nitrosyl-Ngb / NO formation by EPR (in words),[10],slowed the rate of iron-nitrosyl-Ngb formation
same,BRC of nitrite ferric heme reduction,[5],0.0002 ± 0.0005
same,Kd,[6],12.6 ± 3.3 mM
"C55A: recombinant human neuroglobin mutant with cysteine 55 replaced by alanine, six-coordinate (protein, UniProt Q9NPG2 1-151, looked up, variant C55A) Neuroglobin: MERPEPELIRQSWRAVSRSPLEHGTVLFARLFALEPDLLPLFQYNCRQFSSPEDALSSPEFLDHIRKVMLVIDAAVTNVEDLSSLEEYLASLGRKHRAVGVKLSSFSTVGESLLYMLEKCLGPAFTPATRAAWSQLYGAVVQAMSRGWDGE",relative percentage of the total absorbance change (Soret peak 425 nm) in the first 60 minutes,[3],18%
same,rate of nitrite reduction (in words),[3],slowed down the rate of nitrite reduction to similar rates observed with Ngb having fully reduced cysteines
same,rate of NO detected in gas phase (in words),[11],significantly decreased
same,BRC of nitrite ferric heme reduction,[5],0.0002 ± 0.0005
same,Kd,[6],30.1 ± 4.5 mM
same,inhibition of respiration (cyanide = 100%),[1],62±4%
"C46A: recombinant human neuroglobin mutant with cysteine 46 replaced by alanine (protein, UniProt Q9NPG2 1-151, looked up, variant C46A) Neuroglobin: MERPEPELIRQSWRAVSRSPLEHGTVLFARLFALEPDLLPLFQYNARQFSSPEDCLSSPEFLDHIRKVMLVIDAAVTNVEDLSSLEEYLASLGRKHRAVGVKLSSFSTVGESLLYMLEKCLGPAFTPATRAAWSQLYGAVVQAMSRGWDGE",rate of nitrite reduction (in words),[3],slowed down the rate of nitrite reduction to similar rates observed with Ngb having fully reduced cysteines
"Myoglobin: horse heart myoglobin, purified by Sephadex G-25 gel filtration (protein, UniProt P68082 2-154, looked up) Myoglobin: GLSDGEWQQVLNVWGKVEADIAGHGQEVLIRLFTGHPETLEKFDKFKHLKTEAEMKASEDLKKHGTVVLTALGGILKKKGHHEAELKPLAQSHATKHKIPIKYLEFISDAIIHVLHSKHPGDFGADAQGAMTKALELFRNDIAAKYKELGFQG",BRC of myoglobin reaction with nitrite,"[3]; 100 mM phosphate buffer with EDTA, pH 7.4, 25° C.",2.9 ± 0.2 M⁻¹ s⁻¹
